# Experimental data published in patent publication US20260242450A1.
# How the values were obtained:
# [1] = target: HIV-1 envelope proteins of the panel of 185 pseudoviruses generated from virus sequences obtained from the Antibody Mediated Prevention (AMP) trials
# [2] = target: HIV-1 envelope proteins of the panel of 12 global reference pseudovirus strains of HIV-1 ("global panel")
# [3] = target: HIV-1 envelope proteins of the panel of 9 pseudoviruses resistant against CD4bs bNAbs (constituents of the 119 multiclade and Subtype C panels)
# [4] = target: HIV-1 envelope proteins of the panel of 7 pseudoviruses selected from the "Resistant panel to CD4bs bNAbs"
# [5] = target: HIV-1 envelope proteins of the panel of 100 clade C HIV-1 pseudoviruses (Subtype C panel)
# [6] = target: HIV-1 envelope proteins of the multiclade panel of 119 pseudoviruses
# [7] = target: HIV-1 envelope proteins of the panel of 8 pseudoviruses insensitive against neutralization by CD4bs bNAbs (constituents of the 119 multiclade panel)
Binder,"geometric mean IC50, TZM-bl cell pseudovirus neutralization assay [2]","neutralizing activity, TZM-bl cell pseudovirus neutralization assay (breadth) [2]",other results
"04_A06 (antibody, V domains shown) VH: SVRLDQSGTAVKKPGASVRVSCRAPDSFTVYRPRLSAYFIGEFNIHWLRQAPGQGLEWLGFVNIFRGAVKYSSRFQGRITITRDTSSETSYLDLGALKADDTATYYCAWDKNVDDNPWRLDSWGQGTLVIVSS VL: YIQVTQSPSSLSASIGDTITVACEVSQDVGWAVNWYHQRPGRPPYNLIYTAHNLAPGVASRFRGSRVGTYFTLTINNLLPEDVGTYYCQVFDSFAPGGTRVDLR",0.038 µg/mL,100%,"GeoMean IC50, TZM-bl cell pseudovirus neutralization assay [1]: 0.084 µg/mL; neutralizing activity, TZM-bl cell pseudovirus neutralization assay (breadth) [1]: < 98%; neutralizing activity, TZM-bl cell pseudovirus neutralization assay (breadth) [3]: 100%; IC50, TZM-bl cell pseudovirus neutralization assay [4]: 0.153 µg/mL; neutralizing activity, TZM-bl cell pseudovirus neutralization assay (breadth) [4]: 86%; geometric mean IC50, TZM-bl cell pseudovirus neutralization assay [5]: 0.057 µg/mL; neutralizing activity, TZM-bl cell pseudovirus neutralization assay (breadth) [5]: 99%; geometric mean IC50, TZM-bl cell pseudovirus neutralization assay [6]: 0.036 µg/mL; neutralizing activity, TZM-bl cell pseudovirus neutralization assay (breadth) [6]: 99%"
"04_B09 (antibody, V domains shown) VH: SVRLDQSGTAVKKPGASVRVSCRAPDSFTVYRPRLSAYFIGEFNIHWLRQAPGQGLEWLGFVNIFRGAVKYSSAFRGRITITRDTSLETSYLDLGALKPDDTATYFCAWDKNVDDNPWRLDSWGQGTLVVVSS VL: YIQVTQSPSSLSASVGDTITVACQVSQDVGWAVNWYHQRPGRPPYNLIYTTSNLAPGVASRFRGTRVATYFTLTINNLLPEDVGTYYCQVFESFAPGGTRVDLR",< 0.05 µg/mL,100%,
"05_C07 (antibody, V domains shown) VH: HVQLWQSGAEVKKPGASVKISCSAWGFGTRSGYTFRDYRIHWVRQVPRQGFEWMGHLHPAYGAVNYARQFQGRIIMTREVSFDGSGGTVYMELRSLRSDDTATYYCVTHKLYDGEDASDLTWRLDPWGQGTRVTVSS VL: GVSLTQSPASLCASVGDRVTFTCQASQDITNAINWYQLRPGKTPKLMIHDGSTLRRGVPSRFAGSGFGTRFTFTIDNLQPEDLATYFCQHYEFFPPAGTQVDFN",< 0.05 µg/mL,100%,
"01_D03 (antibody, V domains shown) VH: HVQLWQSGAEVKKPGASVKISCSAWGFGTTSGYSFRDYRVHWVRHIAGQGFQWMGHMQPRYGAVNYARQFQGRITMTREVSFDASGGTAYMELRSLRSDDTAVYYCVTHKLYDGEDASDLTWRLDPWGQGTRVIVSS VL: GVHLTQSPASLSASVGDRVTFTCQASQDITNAINWYQLRPGKTPKLMIHDGSTLRRGVPSRFAGSGFGTKFTFTIDNLQPEDLATYFCQHYEFFPPVGTQVELN",0.021 µg/mL,100%,"neutralizing activity, TZM-bl cell pseudovirus neutralization assay (breadth) [7]: 88%"
"01_B01 (antibody, V domains shown) VH: HVQLWQSGAEVKKPGASVKISCAAWGFGTTSGYSFRDYRIHWVRQVPGQGFQWMGHIQPRYGAVNYAHQFQGRITMTREVSFDASGGTAYMELRSLRSDDTATYYCVTHKLYDGEDASDLAWRLDPWGQGTRVTVSS VL: GVHLTQSPASLSASVGDRVTFTCQASQDITNAINWYQLRPGKTPKLMIHDGSTLRRGVPSRFAGGGFGTKFTFTIDNLQPEDLATYFCQHYEFFPPAGTQVELN",< 0.05 µg/mL,100%,
